This is an account of results in patent US20210261676A1 (YINNUOLAI BIOTECH, published 2021).

The test concerns the target T1, B-cell activating factor (BAFF) receptor (human, UniProt Q96RJ3 7-71, limits assumed).
T1 construct: also called TNFRSF13C; BLyS receptor 3
T1 sequence: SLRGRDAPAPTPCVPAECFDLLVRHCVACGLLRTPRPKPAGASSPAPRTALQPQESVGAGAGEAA
As to the kind of experiment: method not stated; column heads (Kdis, Full X^2, Full R^2) look like bio-layer interferometry output.

B1: H90-5 anti-BAFF receptor monoclonal antibody (antibody, V domains shown)
VH: EVQLQESGPGLVKPSQTLSLTCTVSGDSITSGYWNWIRQHPGKGLEYIGYISYSGSTYYNPSLKSRVTISRDTSKNQYSLKLSSVTAADTAVYYCASPNYPFYAMDYWGQGTLVTVSS
VL: DIVLTQSPATLSLSPGERATLSCRASESVDNYGISFMNWFQQKPGQAPRLLIYAASNRATGIPARFSGSGSGTDFTLTISSLEPEDFAVYYCQQSKEVPWTFGGGTKVEIKR
notes: Humanized form of C90; also called H90-5 mAb
B1: the Kd was determined as 3.4 nM, the koff is 0.0034 s⁻¹ and the kon came out at 990000 M⁻¹ s⁻¹.

B2: H90-11 anti-BAFF receptor monoclonal antibody (antibody, V domains shown)
VH: EVQLQESGPGLVKPSQTLSLTCTVSGDSITSGYWNWIRQHPGKGLEYIGYISYSGSTYYNPSLKSRVTISRDTSKNQYSLKLSSVTAADTAVYYCASPNYPFYAMDYWGQGTLVTVSS
VL: DIQMTQSPDSLAVSLGERATINCKSSQSVLYSSNNKNYLAWYQQKPGQPPKLLIYWASIRESGVPDRFSGSGSGTDFTLTISSLQPEDFATYYCQQSYSTPWTFGQGTKLEIKR
notes: same heavy chain variable region as H90-5; also called H90-11 mAb
For the molecule B2, the dissociation constant (Kd) is 0.95 nM, the koff stood at 0.00082 s⁻¹ and the kon is 860000 M⁻¹ s⁻¹.
